Experimental data from US20190331690A1, “BIOTHIOL DETECTION COMPOSITION COMPRISING REDOX REGULATION PROTENIN” (INDUSTRY-UNIVERSITY COOPERATION FOUNDATION HANYANG …, priority 2016, published 2019).

Assays:
[1] = test system: FAM-bound double strand (ds) DNA [SEQ ID NOs: 1 and 2]; test: OhrR and target DNA binding by polyacrylamide gel electrophoresis; conditions: dsDNA 200 nM, room temperature 30 minutes, 7% polyacrylamide gel
Method: Fluorescent probe (FAM)-bound double strand (ds) DNA (200 nM) [SEQ ID NOs: 1 and 2] and OhrR at concentrations shown in FIG. 3 were mixed and reacted at room temperature for 30 minutes, and then a dsDNA band was detected using a fluorescence spectrometer (KIF-300, Korea Lab Tech, Korea) through electrophoresis (25 mA, 30 min) using a polyacrylamide gel (7%). It can be seen that the fluorescent band of dsDNA shifted upward from an OhrR concentration of about 1.6 μM (concentration about 8 fold higher than DNA concentration).

DNA = DNA binding strength of OhrR
[2] = test system: biotin-binding dsDNA [SEQ ID NOs: 1 and 2]; test: Biolayer interferometry of DNA and OhrR binding on a photosensor
Method: A binding degree between DNA and a protein on the surface of a photosensor (optical fiber) was measured using an instrument for biolayer interferometry (Blitz, Fortebio, USA).
Binding buffer, washing buffer: TBS (Tris 20 mM, NaCl 150 mM)
DNA binding time, OhrR binding time: 2 min
DNA concentration: 2.5 μM
OhrR concentration: 50 μM
CHP concentration: 100 μM
First, biotin-binding dsDNA [SEQ ID NOs: 1 and 2] was dissolved in a TBS buffer at the above-mentioned concentration, bound to a streptavidin-coated photosensor (optical fiber) by flowing the resulting mixture for 120 seconds, and washed with a buffer, and then the OhrR protein was associated with dsDNA binding to the photosensor by additionally flowing the protein dissolved in a TBS buffer at the above-described concentration for 120 seconds (association). After the association was completed, by additionally flowing only a buffer for 120 seconds, the dissociation process of the DNA-OhrR complex was confirmed (dissociation).
In biolayer interferometry, when a biomaterial (DNA or OhrR) is bound to the surface of a photosensor, a change in the surface refractive index of the photosensor is necessarily accompanied (the refractive index has a positive correlation with the concentration of a biomaterial), and the principle of converting the change in refractive index to a thickness is applied. […]

[3] = Second order reaction rate between a biothiol and the redox-regulating protein; assay type: biochemical

B1: OhrR: redox-regulating protein, organic hydroperoxide regulator, cloned in B. subtilis strain, SEQ ID NO: 3, homodimer, 17 kD (protein, listed as Bacillus subtilis)
chain: MENKFDHMKLENQLCFLLYASSREMTKQYKPLLDKLNITYPQYLALLLLWEHETLTVKKMGEQLYLDSGTLTPMLKRMEQQGLITRKRSEEDERSVLISLTEDGALLKEKAVDIPGTILGLSKQSGEDLKQLKSALYTLLETLHQKN
modifications: homodimer
[1]
  OhrR concentration from which the fluorescent band of dsDNA shifted upward: about 1.6 μM
DNA
  Kd: ≤ 1 nM
[2]; OhrR 50 μM, DNA 2.5 μM, without CHP and biothiol
  binding thickness (dissociation equilibrium of OhrR minus dsDNA binding equilibrium): about 4.3 nm
[2]; in the presence of both CHP and a biothiol
  binding thickness: about 1 nm
[3]
  second order reaction rate between a biothiol and the redox-regulating protein: about 10^3 M^−1s^−1
